Among the data in the supplement of paper PMC10724198 are protein stability index values, retold here.

± gives the standard deviation of the averaged measurements.

Data set [1] concerns Saccharomyces cerevisiae. Briefly: protein stability index of tFT-peptide fusion (C-terminal peptide) (PSI (0-1 scale)); higher = more stable (slower turnover). Here is the method: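 MPS profiling in S. cerevisiae of the tFT-X12 degron library: putative degron peptides plus stable controls, 12 aa, fused to the C-terminus of a sfGFP-mCherry timer. Cells are FACS-sorted into 8 mCherry/sfGFP bins and deep-sequenced. PSI runs from 0 (unstable) to 1 (stable). Backgrounds are wild type, das1Δ and doa10Δ at 30 °C, and wild type, das1Δ, cdc34-1 and cdc53-1 at 37 °C; 2-3 technical replicates each.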

In data set [2] the test system is Saccharomyces cerevisiae. The description is as above. The following applies: genetic background: wild type; temperature: 30 C.
The mark [3] stands for this setting: genetic background: cdc34-1, temperature: 37 C.
The mark [4] stands for this setting: genetic background: cdc53-1, temperature: 37 C.
Where [5] appears, read: genetic background: das1 deletion, temperature: 30 C.
Setting [6] is: genetic background: das1 deletion, temperature: 37 C.
Where [7] appears, read: genetic background: doa10 deletion, temperature: 30 C.
Where [8] appears, read: genetic background: wild type, temperature: 30 C.
Setting [9] is: genetic background: wild type, temperature: 37 C.
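Further: PSI is a weighted mean of sequencing reads over stability bins, variants kept only with over 10 reads, mCherry proximal and sfGFP distal, peptide attached via GGGS linker.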

Consider LPLPPPGSPPPL, for which the protein stability index in data set [1] (setting [3]) came out at 0.653 ± 0.032; in data set [1] (setting [4]), 0.744 ± 0.036; in data set [1] (setting [5]), 0.668 ± 0.021; in data set [1] (setting [6]), 0.726 ± 0.0077; in data set [1] (setting [7]), 0.659 ± 0.014; in data set [1] (setting [8]) it was 0.682 ± 0.033. Also, the protein stability index in data set [1] (setting [9]) came out at 0.698 ± 0.0069.
Take PSLVFLPPPPPR: the protein stability index was found to be 0.673 ± 0.04 in data set [1] (setting [3]); 0.7452 ± 0.0056 in data set [1] (setting [4]); 0.677 ± 0.0098 in data set [1] (setting [5]); 0.7475 ± 0.0016 in data set [1] (setting [6]); 0.681 ± 0.018 in data set [1] (setting [7]); 0.701 ± 0.025 in data set [1] (setting [8]). This sequence also returned a protein stability index in data set [1] (setting [9]) of 0.72099 ± 0.00046.
In the case of RDTTQRRRKTAA, the protein stability index in data set [1] (setting [3]) was found to be 0.657 ± 0.039; in data set [1] (setting [4]), 0.662 ± 0.026; in data set [1] (setting [5]), 0.6608 ± 0.0048; in data set [1] (setting [6]), 0.6583 ± 0.005; in data set [1] (setting [7]) it was 0.443 ± 0.0084; in data set [1] (setting [8]), 0.448 ± 0.012. Besides, the protein stability index in data set [1] (setting [9]) is 0.60824 ± 0.00016.
Consider RWRLWGGWWVVG, for which the protein stability index in data set [1] (setting [3]) amounted to 0.601 ± 0.028; in data set [1] (setting [4]), 0.727 ± 0.012; in data set [1] (setting [5]), 0.579 ± 0.022; in data set [1] (setting [6]) it was 0.718 ± 0.017; in data set [1] (setting [7]), 0.191 ± 0.019; in data set [1] (setting [8]) it was 0.196 ± 0.022. The sequence further returned a protein stability index in data set [1] (setting [9]) of 0.419 ± 0.015.
For the sequence TGPVFVSFRLLH, the protein stability index is 0.703 ± 0.065 in data set [1] (setting [3]); 0.752 ± 0.012 in data set [1] (setting [4]); 0.67 ± 0.066 in data set [1] (setting [5]); 0.737 ± 0.024 in data set [1] (setting [6]); 0.384 ± 0.015 in data set [1] (setting [7]); 0.405 ± 0.035 in data set [1] (setting [8]). The sequence also registered a protein stability index in data set [1] (setting [9]) of 0.627 ± 0.0095.
As to TLDCKFGRGGIG, the protein stability index turned out to be 0.309 ± 0.015 in data set [1] (setting [3]); 0.423 ± 0.013 in data set [1] (setting [4]); 0.332 ± 0.0069 in data set [1] (setting [5]); 0.401 ± 0.017 in data set [1] (setting [6]); 0.325 ± 0.0077 in data set [1] (setting [7]); 0.321 ± 0.013 in data set [1] (setting [8]). This sequence also yielded a protein stability index in data set [1] (setting [9]) of 0.392 ± 0.0016.
As to WLFAILPSRLIA, the protein stability index in data set [1] (setting [3]) stood at 0.284 ± 0.021; in data set [1] (setting [4]) it was 0.373 ± 0.0075; in data set [1] (setting [5]) it was 0.344 ± 0.035; in data set [1] (setting [6]), 0.488 ± 0.0068; in data set [1] (setting [7]) it was 0.0644 ± 0.0086; in data set [1] (setting [8]), 0.0673 ± 0.012. Besides, in data set [1] (setting [9]), the protein stability index came to 0.0638 ± 0.0027.
WPRPSLPPLYAP returned a protein stability index in data set [2] of 0.685 ± 0.051.
On the same count and under the same terms, with WPYDRHTRHRET the figure was 0.767 ± 0.092; with WPYEPGSSIVNG, 0.717 ± 0.01.
WRKMSNDIRGRW gave a protein stability index in data set [2] of 0.799 ± 0.11.
As to WRLAVDLGRFCT, in data set [2], the protein stability index is 0.617 ± 0.16.
Same read-out and setting: with WRSGLRGPAIYG the figure was 0.707 ± 0.018.
Take WRSLVTVSTTAC: the protein stability index in data set [2] was determined as 0.558 ± 0.042.
In data set [2], WSLGLVGRGFWG had a protein stability index of 0.73 ± 0.11.
Same read-out and setting: with WSLGRRKLLHRI the figure was 0.666 ± 0.064; with WSLLLLPEFSLR, 0.705 ± 0.012.
WSVGYLSVALYR returned a protein stability index in data set [2] of 0.615 ± 0.014.
On the same count and under the same terms, in the case of WSWEVTSSVCRI it was 0.732 ± 0.058; in that of WTFPWICFLGFG, 0.589 ± 0.029.
In data set [2], WTRFSEKIVILR showed a protein stability index of 0.582 ± 0.026.
The same measure, in the same setting: with WVGRGGAVENKV the figure was 0.718 ± 0.03; with WVLRRVGTVVYL, 0.585 ± 0.018.
In the case of WVLSYVPEIGRL, the protein stability index in data set [2] is 0.741 ± 0.035.
WVWGWRRGLRGV displayed a protein stability index in data set [2] of 0.657 ± 0.011.
The same measure, in the same setting: with WVWKRLTGQDGA the figure was 0.668 ± 0.06; with WWGFGGVWRCGL, 0.6874 ± 0.0056; with WWHVLLGGCGCW, 0.753 ± 0.013.
Still for that read-out and setting: with WWLARNPLLSRL the figure was 0.779 ± 0.026; with WWSAHIRAGASL, 0.672 ± 0.017; with WWWGGGRGGMGG, 0.734 ± 0.019.
WYVALGRFVGGS displayed a protein stability index in data set [2] of 0.678 ± 0.049.
